Measurements reported in paper PMC12861225.

Experiments:
[1] = remaining pNPP activity after 56 °C; mutant:WT plasmid 1:1; conditions: glycan lost; control: wild type
[2] = pNPP activity; mutant:WT plasmid 1:1 (heterodimers not confirmed); conditions: glycan lost; control: wild type plasmid only
[3] = anti-Flag immunoblot, lysate vs medium, 1 μM MG-132 16 h; conditions: glycan lost; control: wild type
[4] = anti-Flag capillary immunoblot of Flag-purified medium, pooled n=6; conditions: glycan lost; control: wild type
[5] = SYPRO Orange thermal shift, pooled purified protein; conditions: glycan lost; control: wild type

B1: Tissue-nonspecific alkaline phosphatase (TNALP): heterodimeric N271Q/N303Q (protein)
parent chain: MISPFLVLAIGTCLTNSLVPEKEKDPKYWRDQAQETLKYALELQKLNTNVAKNVIMFLGDGMGVSTVTAARILKGQLHHNPGEETRLEMDKFPFVALSKTYNTNAQVPDSAGTATAYLCGVKANEGTVGVSAATERSRCNTTQGNEVTSILRWAKDAGKSVGIVTTTRVNHATPSAAYAHSADRDWYSDNEMPPEALSQGCKDIAYQLMHNIRDIDVIMGGGRKYMYPKNKTDVEYESDEKARGTRLDGLDLVDTWKSFKPRYKHSHFIWNRTELLTLDPHNVDYLLGLFEPGDMQYELNRNNVTDPSLSEMVVVAIQILRKNPKGFFLLVEGGRIDHGHHEGKAKQALHEAVEMDRAIGQAGSLTSSEDTLTVVTADHSHVFTFGGYTPRGNSIFGLAPMLSDTDKKPFTAILYGNGPGYKVVGGERENVSMVDYAHNNYQAQSAVPLRHETHGGEDVAVFSKGPMAHLLHGVHEQNYVPHVMAYAACIGANLGHCAPASSAGSLAAGPLLLALALYPLSVLF
stability_or_folding [1]: no change
enzymatic_activity, percent_of_wt [2]: decreases

B2: Tissue-nonspecific alkaline phosphatase (TNALP): N140Q/N271Q (protein)
parent chain: B1 parent chain
localisation_or_trafficking, fold_change [3]: changes
expression_or_secretion, fold_change [4]: decreases, 0.2 vs 1.0
stability_or_folding, Tm [5]: decreases, 53.7 vs 54.5

B3: Tissue-nonspecific alkaline phosphatase (TNALP): heterodimeric N271Q/N430D (protein)
parent chain: B1 parent chain
stability_or_folding [1]: no change
enzymatic_activity, percent_of_wt [2]: decreases

B4: Tissue-nonspecific alkaline phosphatase (TNALP): N230Q/N271Q (protein)
parent chain: B1 parent chain
localisation_or_trafficking, fold_change [3]: changes
expression_or_secretion, fold_change [4]: abolishes, 0.0 vs 1.0

B5: Tissue-nonspecific alkaline phosphatase (TNALP): heterodimeric N303Q/N430D (protein)
parent chain: B1 parent chain
stability_or_folding [1]: no change
enzymatic_activity, percent_of_wt [2]: decreases
